The Human Domainome abundance scans (Beltran et al. 2025)
± gives the uncertainty stated by the source.

B1: POU domain, class 3, transcription factor 2, residues 356 to 411; numbered along this chain, P20265 (parent)
chain: KKRTSIEVSVKGALESHFLKCPKPSAQEITSLADSLQLEKEVVRVWFCNRRQKEKR

Variants of: B1
Assay: abundance fitness (aPCA) (normalised: wild type 0, dead -1); higher = more abundant; growth selection in yeast, the domain comes from the species named
Conditions: Homo sapiens

Variant | abundance fitness
KKRTSIEVSVKGALESHCLKCPKPSAQEITSLADSLQLEKEVVRVWFCNRRQKEKR | -0.914 ± 0.21
KKRTSIEVSVKGALESHMLKCPKPSAQEITSLADSLQLEKEVVRVWFCNRRQKEKR | -1.02 ± 0.23
KKRTSIEVSVKGALESHALKCPKPSAQEITSLADSLQLEKEVVRVWFCNRRQKEKR | -0.902 ± 0.13
KKRTSIEVSVKGALESHGLKCPKPSAQEITSLADSLQLEKEVVRVWFCNRRQKEKR | -0.976 ± 0.1
KKRTSIEVSVKGALESHRLKCPKPSAQEITSLADSLQLEKEVVRVWFCNRRQKEKR | -0.872 ± 0.1
KKRTSIEVSVKGALESHDLKCPKPSAQEITSLADSLQLEKEVVRVWFCNRRQKEKR | -0.875 ± 0.17
KKRTSIEVSVKGALESHELKCPKPSAQEITSLADSLQLEKEVVRVWFCNRRQKEKR | -0.979 ± 0.21
KKRTSIEVSVKGALESHLLKCPKPSAQEITSLADSLQLEKEVVRVWFCNRRQKEKR | -0.836 ± 0.1
KKRTSIEVSVKGALESHKLKCPKPSAQEITSLADSLQLEKEVVRVWFCNRRQKEKR | -0.936 ± 0.3
KKRTSIEVSVKGALESHNLKCPKPSAQEITSLADSLQLEKEVVRVWFCNRRQKEKR | -0.856 ± 0.36
KKRTSIEVSVKGALESHILKCPKPSAQEITSLADSLQLEKEVVRVWFCNRRQKEKR | -1.1 ± 0.33
KKRTSIEVSVKGALESHSLKCPKPSAQEITSLADSLQLEKEVVRVWFCNRRQKEKR | -0.824 ± 0.12
KKRTSIEVSVKGALESHTLKCPKPSAQEITSLADSLQLEKEVVRVWFCNRRQKEKR | -1.2 ± 0.4
KKRTSIEVSVKGALESQFLKCPKPSAQEITSLADSLQLEKEVVRVWFCNRRQKEKR | -0.286 ± 0.13
KKRTSIEVSVKGALESYFLKCPKPSAQEITSLADSLQLEKEVVRVWFCNRRQKEKR | 0.156 ± 0.083
KKRTSIEVSVKGALESAFLKCPKPSAQEITSLADSLQLEKEVVRVWFCNRRQKEKR | 0.127 ± 0.1
KKRTSIEVSVKGALESGFLKCPKPSAQEITSLADSLQLEKEVVRVWFCNRRQKEKR | -0.712 ± 0.1
KKRTSIEVSVKGALESTFLKCPKPSAQEITSLADSLQLEKEVVRVWFCNRRQKEKR | -0.1 ± 0.11
KKRTSIEVSVKGALESVFLKCPKPSAQEITSLADSLQLEKEVVRVWFCNRRQKEKR | -0.287 ± 0.082
KKRTSIEVSVKGALESMFLKCPKPSAQEITSLADSLQLEKEVVRVWFCNRRQKEKR | -0.047 ± 0.11
KKRTSIEVSVKGALESDFLKCPKPSAQEITSLADSLQLEKEVVRVWFCNRRQKEKR | -0.833 ± 0.22
KKRTSIEVSVKGALESKFLKCPKPSAQEITSLADSLQLEKEVVRVWFCNRRQKEKR | -0.364 ± 0.13
KKRTSIEVSVKGALESWFLKCPKPSAQEITSLADSLQLEKEVVRVWFCNRRQKEKR | -0.02 ± 0.098
KKRTSIEVSVKGALESNFLKCPKPSAQEITSLADSLQLEKEVVRVWFCNRRQKEKR | -0.229 ± 0.35

Variant | abundance fitness
KKRTSIEVSVKGALESEFLKCPKPSAQEITSLADSLQLEKEVVRVWFCNRRQKEKR | -0.139 ± 0.1
KKRTSIEVSVKGALESIFLKCPKPSAQEITSLADSLQLEKEVVRVWFCNRRQKEKR | -0.289 ± 0.16
KKRTSIEVSVKGALESSFLKCPKPSAQEITSLADSLQLEKEVVRVWFCNRRQKEKR | 0.089 ± 0.095
KKRTSIEVSVKGALESPFLKCPKPSAQEITSLADSLQLEKEVVRVWFCNRRQKEKR | -1.05 ± 0.25
KKRTSIEVSVKGALESRFLKCPKPSAQEITSLADSLQLEKEVVRVWFCNRRQKEKR | -0.556 ± 0.085
KKRTSIEVSVKGALESLFLKCPKPSAQEITSLADSLQLEKEVVRVWFCNRRQKEKR | -0.292 ± 0.079
KKRTSIEVSVKGALESCFLKCPKPSAQEITSLADSLQLEKEVVRVWFCNRRQKEKR | -0.283 ± 0.12
KKRTSIEVSVKGAWESHFLKCPKPSAQEITSLADSLQLEKEVVRVWFCNRRQKEKR | -0.915 ± 0.14
KKRTSIEVSVKGAIESHFLKCPKPSAQEITSLADSLQLEKEVVRVWFCNRRQKEKR | -0.706 ± 0.27
KKRTSIEVSVKGAFESHFLKCPKPSAQEITSLADSLQLEKEVVRVWFCNRRQKEKR | -0.814 ± 0.22
KKRTSIEVSVKGAEESHFLKCPKPSAQEITSLADSLQLEKEVVRVWFCNRRQKEKR | -0.794 ± 0.23
KKRTSIEVSVKGAVESHFLKCPKPSAQEITSLADSLQLEKEVVRVWFCNRRQKEKR | -0.641 ± 0.13
KKRTSIEVSVKGAQESHFLKCPKPSAQEITSLADSLQLEKEVVRVWFCNRRQKEKR | -0.848 ± 0.21
KKRTSIEVSVKGANESHFLKCPKPSAQEITSLADSLQLEKEVVRVWFCNRRQKEKR | -0.632 ± 0.23
KKRTSIEVSVKGAAESHFLKCPKPSAQEITSLADSLQLEKEVVRVWFCNRRQKEKR | -1.04 ± 0.22
KKRTSIEVSVKGASESHFLKCPKPSAQEITSLADSLQLEKEVVRVWFCNRRQKEKR | -0.923 ± 0.11
KKRTSIEVSVKGACESHFLKCPKPSAQEITSLADSLQLEKEVVRVWFCNRRQKEKR | -0.78 ± 0.2
KKRTSIEVSVKGAMESHFLKCPKPSAQEITSLADSLQLEKEVVRVWFCNRRQKEKR | -0.501 ± 0.13
KKRTSIEVSVKGATESHFLKCPKPSAQEITSLADSLQLEKEVVRVWFCNRRQKEKR | -0.953 ± 0.22
KKRTSIEVSVKGAKESHFLKCPKPSAQEITSLADSLQLEKEVVRVWFCNRRQKEKR | -0.933 ± 0.2
KKRTSIEVSVKGAGESHFLKCPKPSAQEITSLADSLQLEKEVVRVWFCNRRQKEKR | -0.882 ± 0.12
KKRTSIEVSVKGAHESHFLKCPKPSAQEITSLADSLQLEKEVVRVWFCNRRQKEKR | -0.762 ± 0.2
KKRTSIEVSVKGARESHFLKCPKPSAQEITSLADSLQLEKEVVRVWFCNRRQKEKR | -0.855 ± 0.092
